These results are taken from article PMC5795001, “The activity of the C4-dicarboxylic acid chemoreceptor of Pseudomonas aeruginosa is controlled by chemoattractants and antagonists” (Scientific Reports, 2018).

The data set deals with the molecule itself. Briefly: AUC; sedimentation velocity, ligand-free protein at 5-20 uM, 48 000 rpm, 7 °C, 20 mM PIPES pH 7.0.

B1: ligand binding domain (LBD) of the chemoreceptor PA2652 (domain or fragment, Pseudomonas aeruginosa PAO1, UniProt Q9I0I6 34-205, looked up)
chain: KKQADAEVKDTRERLLGDRRAELEHYVQIAMGSIQAEYDRSANGDLNARAEAIARLSKIKYGKDGYIFGYDSQVVRLFRGDSPVDVGKSFRDRRDPSGVYLNRELVEAGRNGSHYVTYTSPLPGNESVMVPKLSYTLYLPKWDMVIGSAINLDGVEAQLVEIKQDIDERIGT
notes: No removal of the tag is described; this is surmised; also called PA2652-LBD
Broadly, the stoichiometry N is a count of units in the complex or per binding partner. B1: the “stoichiometry N” value turned out to be 2.
